Measured values taken from patent US20070059727A1.

Target: microtubules assembled from fluorescein-modified bovine brain tubulin (α-/β-tubulin heterodimers) (bovine)
Experiment: cell-based or functional assay

average MT length after 5 min of polymerization (MTs on GST-γ-tubulin-functionalized gold pads against MTs grown in solution): 1.68 micron
average MT length after 10 min of polymerization (MTs on GST-γ-tubulin-functionalized gold pads against MTs grown in solution): 3.47 micron
Substance: Glutathione S-Transferase (GST)-tagged γ-Tubulin fusion protein (from UniProt P23258 1-451)
